Experimental data published in article doi:10.1101/2020.06.09.143594 (bioRxiv, 2020).

Target: the molecule itself
Test: cross-linking

B1: σ1 M332C, S370P, Q371E, S403C of the HeadΔSA mutant virus, on purified virions (natural protein, UniProt P04506 1-470, looked up)
chain: MDASLITEIRKIVLQLSVSSNGSQSKEIEEIKKQVQVNVDDIRAANIKLDGLGRQIADISNSISTIESRLGEMDNRLVGISSQVTQLSNSVSQNTQSISSLGDRINAVEPRVDSLDTVTSNLTGRTSTLEADVGSLRTELAALTTRVTTEVTRLDGLINSGQNSIGELSTRLSNVETSMVTTAGRGLQKNGNTLNVIVGNGMWFNSSNQLQLDLSGQSKGVGFVGTGMVVKIDTNYFAYNSNGEITLVSQINELPSRVSTLESAKIDSVLPPLTVREASGVRTLSFGYDTSDFTIINSVLSLRSRLTLPTYRYPLELDTANNRVQVADRFGCRTGTWTGQLQYQHPQLSWRANVTLNLMKVDDWLVLSFPEMTTNSIMADGKFVINFVSGLSSGWQTGDTEPCSTIDPLSTTFAAVQFLNNGQRIDAFRIMGVSEWTDGELEIKNYGGTYTGHTQVYWAPWTIMYPCNVR
**Q.** Does B1 bind?
**A.** binds
